Measured values as given in the supplement of paper PMC11246515.
± gives the standard deviation of the averaged measurements.

Experiment: total protein half-life in vivo (active degradation + dilution); higher = more stable protein
[1] = E. coli NCM3722 delta-clpP delta-lon delta-hslV, growth: N-lim chemostat, doubling time 6 h
[2] = E. coli NCM3722 delta-clpP, growth: N-lim chemostat, doubling time 6 h
[3] = E. coli NCM3722 delta-lon, growth: N-lim chemostat, doubling time 6 h
[4] = E. coli NCM3722 delta-smpB, growth: N-lim chemostat, doubling time 6 h
[5] = wild type E. coli NCM3722, growth: C-lim chemostat, doubling time 3 h
[6] = wild type E. coli NCM3722, growth: C-lim chemostat, doubling time 6 h
[7] = wild type E. coli NCM3722, growth: C-lim chemostat, doubling time 12 h
[8] = wild type E. coli NCM3722, growth: P-lim chemostat, doubling time 6 h
[9] = wild type E. coli NCM3722, growth: P-lim chemostat, doubling time 12 h

Row | Sequence | total protein half-life in vivo [1] | total protein half-life in vivo [2] | total protein half-life in vivo (E. coli NCM3722 delta-hslV, growth: N-lim chemostat, doubling time 6 h) | total protein half-life in vivo [3] | total protein half-life in vivo [4] | total protein half-life in vivo [5] | total protein half-life in vivo [6] | total protein half-life in vivo [7] | total protein half-life in vivo (wild type E. coli NCM3722, growth: N-lim chemostat, doubling time 6 h) | total protein half-life in vivo (wild type E. coli NCM3722, growth: N-lim chemostat, doubling time 12 h) | total protein half-life in vivo [8] | total protein half-life in vivo [9]
1 | MRRVNILCSFALLFASHTSLAVTYPLPPEGSRLVGQSFTVTVPDHNTQPLETFAAQYGQGLSNMLEANPGADVFLPKSGSQLTIPQQLILPDTVRKGIVVNVAEMRLYYYPPDSNTVEVFPIGIGQAGRETPRNWVTTVERKQEAPTWTPTPNTRREYAKRGESLPAFVPAGPDNPMGLYAIYIGRLYAIHGTNANFGIGLRVSQGCIRLRNDDIKYLFDNVPVGTRVQIIDQPVKYTTEPDGSNWLEVHEPLSRNRAEYESDRKVPLPVTPSLRAFINGQEVDVNRANAALQRRSGMPVQISSGSRQMF | 5.58 ± 1.1 h | 6.17 ± 0.48 h | 5.997 ± 0.037 h | 6.9 ± 1 h | 5.83 ± 0.5 h | 3.35 ± 0.46 h | 5.64 ± 0.53 h | 10.128 ± 0.0088 h | 6.43 ± 0.88 h | 11.4 ± 0.34 h | 5.24 ± 0.69 h | 11.3 ± 0.51 h
2 | MNNSINHKFHHISRAEYQELLAVSRGDAVADYIIDNVSILDLINGGEISGPIVIKGRYIAGVGAEYTDAPALQRIDARGATAVPGFIDAHLHIESSMMTPVTFETATLPRGLTTVICDPHEIVNVMGEAGFAWFARCAEQARQNQYLQVSSCVPALEGCDVNGASFTLEQMLAWRDHPQVTGLAEMMDYPGVISGQNALLDKLDAFRHLTLDGHCPGLGGKELNAYITAGIENCHESYQLEEGRRKLQLGMSLMIREGSAARNLNALAPLINEFNSPQCMLCTDDRNPWEIAHEGHIDALIRRLIEQHNVPLHVAYRVASWSTARHFGLNHLGLLAPGKQADIVLLSDARKVTVQQVLVKGEPIDAQTLQAEESARLAQSAPPYGNTIARQPVSASDFALQFTPGKRYRVIDVIHNELITHSHSSVYSENGFDRDDVSFIAVLERYGQRLAPACGLLGGFGLNEGALAATVSHDSHNIVVIGRSAEEMALAVNQVIQDGGGLCVVRNGQVQSHLPLPIAGLMSTDTAQSLAEQIDALKAAARECGPLPDEPFIQMAFLSLPVIPALKLTSQGLFDGEKFAFTTLEVTE | 4.53 h | 3.24 ± 0.11 h |  |  |  | 2.16 ± 0.17 h | 3.19 ± 0.16 h | 4.26 ± 0.098 h |  |  | 3.61 ± 1.4 h | 4.14 ± 0.77 h
3 | MTEKVKQHAAPVTGSDEIDIGRLVGTVIEARWWVIGITTVFALCAVVYTFFATPIYSADALVQIEQNSGNSLVQDIGSALANKPPASDAEIQLIRSRLVLGKTVDDLDLDIAVSKNTFPIFGAGWDRLMGRQNETVKVTTFNRPKEMADQVFTLNVLDNKNYTLSSDGGFSARGQAGQMLKKEGVTLMVEAIHASPGSEFTVTKYSTLGMINQLQNSLTVTENGKDAGVLSLTYTGEDREQIRDILNSIARNYQEQNIERKSAEASKSLAFLAQQLPEVRSRLDVAENKLNAFRQDKDSVDLPLEAKAVLDSMVNIDAQLNELTFKEAEISKLYTKVHPAYRTLLEKRQALEDEKAKLNGRVTAMPKTQQEIVRLTRDVESGQQVYMQLLNKEQELKITEASTVGDVRIVDPAITQPGVLKPKKGLIILGAIILGLMLSIVGVLLRSLFNRGIESPQVLEEHGISVYASIPLSEWQKARDSVKTIKGIKRYKQSQLLAVGNPTDLAIEAIRSLRTSLHFAMMQAQNNVLMMTGVSPSIGKTFVCANLAAVISQTNKRVLLIDCDMRKGYTHELLGTNNVNGLSEILIGQGDITTAAKPTSIAKFDLIPRGQVPPNPSELLMSERFAELVNWASKNYDLVLIDTPPILAVTDAAIVGRHVGTTLMVARYAVNTLKEVETSLSRFEQNGIPVKGVILNSIFRRASAYQDYGYYEYEYKSDAK |  |  |  | 4.27 ± 0.44 h | 2.13 ± 0.52 h | 2.75 h |  |  |  |  |  | 
4 | MNPLLTDSRRQALRSASHWYAVLSGERVSPQQEARWQQWYEQDQDNQWAWQQVENLRNQLGGVPGDVASRALHDTRLTRRHVMKGLLLLLGAGGGWQLWQSETGEGLRADYRTAKGTVSRQQLEDGSLLTLNTQSAADVRFDAHQRTVRLWYGEIAITTAKDALQRPFRVLTRQGQLTALGTEFTVRQQDNFTQLDVQQHAVEVLLASAPAQKRIVNAGESLQFSASEFGAVKPLDDESTSWTKDILSFSDKPLGEVIATLTRYRNGVLRCDPAVAGLRLSGTFPLKNTDAILNVIAQTLPVKIQSITRYWINISPL |  |  |  |  | 0.672 h |  |  |  |  |  |  | 
5 | MLILKNVTAVQLHPAKVQEGVDIAIENDVIVAIGDALTQRYPDASFKEMHGRIVMPGIVCSHNHFYSGLSRGIMANIAPCPDFISTLKNLWWRLDRALDEESLYYSGLICSLEAIKSGCTSVIDHHASPAYIGGSLSTLRDAFLKVGLRAMTCFETTDRNNGIKELQEGVEENIRFARLIDEAKKATSEPYLVEAHIGAHAPFTVPDAGLEMLREAVKATGRGLHIHAAEDLYDVSYSHHWYGKDLLARLAQFDLIDSKTLVAHGLYLSKDDITLLNQRDAFLVHNARSNMNNHVGYNHHLSDIRNLALGTDGIGSDMFEEMKFAFFKHRDAGGPLWPDSFAKALTNGNELMSRNFGAKFGLLEAGYKADLTICDYNSPTPLLADNIAGHIAFGMGSGSVHSVMVNGVMVYEDRQFNFDCDSIYAQARKAAASMWRRMDALA | 3.15 h |  |  |  |  | 2.62 h | 4.3 h | 11.2 h |  |  |  | 
